Results taken from patent publication US10393755B2, “Compositions and methods for treating eye infections and disease” (UNIVERSITY OF VIRGINIA PATENT FOUNDATION, priority 2014, dated 2019).

How the values were obtained:
[1] = test system: corneal sensory nerves; test: Corneal sensory nerve activity monitored at the trigeminal ganglion; type: in vivo, rat
Source text: Topical lacritin stimulates tearing even without physical access to lacrimal acinar cells. The rapidity of the response is in keeping with corneal sensory nerve activation. Individual corneal sensory nerve activity was monitored at the level of the trigeminal ganglion in rats via previously described methods. Emerging from these studies was the observation that topical lacritin is neural stimulatory. […] The ‘dry response’ refers to neural activation as a consequence of drying of the cornea, which is thought to be a critical TRPM8-mediated stimulus for tearing, while the ‘wet response’ occurs when the agonist is present at the corneal nerve terminals. […] Apparent inhibition of the action potentials by lacritin during wet cornea was small because the TRPM8 activity during wet cornea is low to begin with, while it reaches optimal level during dry cornea when dynamic cooling of the ocular surface is taking place. Lacritin may also increase TRPM8 neural density.

[2] = type: in vitro ADME, human
Protocol: A limitation of most synthetic peptide drugs is their protease sensitivity. […] Retropepsin would inactivate LACRIPEP, while cathepsin K would have no effect. However neither protease is found in normal human tears. Nonetheless, tears are rich in other proteases. We therefore incubated LACRIPEP in normal human tears at 37° C. for 2, 4, 6 and 16 hr. For immunoblotting, we first removed all endogenous lacritin by immunodepletion. […] (FIG. 6B).

[3] = test system: bacteria; test: Lacritin inhibition (colony count) assay, bacterium not given; type: cell-based; conditions: whole protein
Protocol: (§1) Bacterial Growth, SYTOX Green Assays, and on Column Cleavage—E. coli (ATCC (Manassas Va.) catalog no. 10536), S. epidermidis (ATCC catalog no. 12228), and P. aeruginosa (ATCC catalog no. 9027) were grown to mid-log phase in 50 ml of Luria-Bertani (LB) medium and washed three times in phosphate buffer containing 10 mM NaCl (pH 7.2; PB—NaCl) with centrifugation. Pellets were resuspended in 1 ml of PB—NaCl.
(§2) For lacritin inhibition assays, 50 ul of bacterial pellets each diluted 1:100 in PB—NaCl were incubated for 1.5 h (37° C.) with 100 ul of lacritin, lacritin truncations, or synthetic peptides at a final concentration of 0.1-6 uM. Mixtures were diluted 1:10 in PB—NaCl before plating 100 ul in quadruplicate on LB agar plates for overnight growth at 37° C. Colonies were manually counted. In other experiments, mid-log E. coli was treated at 37° C. for 0, 1, 2, or 3 h with 2 uM lacritin or lacritin truncations or with ampicillin (5 uM) or tetracycline (2 uM). After each treatment, 100 ul was centrifuged, resuspended in 1 ml of PB—NaCl, and plated (100 ul) onto LB agar for overnight growth (37° C.) and colony counting.

[4] = test system: P. aeruginosa; test: Lacritin inhibition (colony count) assay, P. aeruginosa; type: cell-based; conditions: 2 uM, mid-log P. aeruginosa
Protocol: as §1, §2

[5] = test system: E. coli; test: Lacritin inhibition (colony count) assay, E. coli; type: cell-based; conditions: 2 uM, mid-log E. coli
Protocol: as §1, §2

[6] = test system: Aire(−/−) dry eye mice; test: Topical treatment of Aire(-/-) dry eye mice; type: in vivo, mouse
Protocol: Autoimmune regulator (Aire)-deficient [Aire^−/−] mice spontaneously develop dry eye without need for dry chambers or scopolamine Aire^−/− mice were dosed three times daily for three weeks with 10 μl of 50 μg/mllacritin, or in controls with PBS. Several different assays monitored the consequences. […] Topical lacritin reduced CD4+T cell infiltration into lacrimal glands measured as the number of lymphocytic foci/per millimeter square area of lacrimal gland tissue (3.68±0.65 per mm sq lacritin vs. 9.7+1.5 per mm sq PBS; P=0.01), but had no apparent effect on the pattern or distribution of CD4+T cells into either the corneal stroma (14.6±1.6 lacritin vs 12.4±2.1 PBS) or the limbus (29.6±2.5 lacritin vs 34.6±2.9 PBS.
To assess ocular surface mucosal damage from dry eye, eyes of Aire(−/−) dry eye mice were topically administered lissamine green that increasingly stained PBS-treated eyes with time (See FIG. 4C). […] Thus, topical lacritin, and its bioactive fragments thereof, diminished lacrimal gland inflammation and corneal staining in dry eye, and promoted ocular surface differentiation. Importantly, suppression of inflammation and promotion of tearing was achieved without direct contact with inflammatory cells nor with tear producing cells.

[7] = test system: basal tearing; conditions: Sumadre et al. 2011, cited from earlier work
[8] = test system: primary human corneal epithelial cells; test: FOXO3 translocation in INFG/TNF stressed primary human corneal epithelial cells; type: cell-based
[9] = test system: HCE-T cells; test: FOXO3 translocation assay in IFNG/TNF stressed HCE-T cells; type: cell-based, human; conditions: dry eye tears 1:100, 10 nM, 15 min
Protocol: For FOXO3 translocation assays, HCE-T cells were grown in triplicate to subconfluence (˜50%) on coverslips in α-MEM (5.54 mm glucose), sensitized overnight in IFNG (100 units/ml; Roche Applied Science), and treated for 15 min with normal or dry eye tears diluted 1:100 in α-MEM together with TNF (50 ng/ml; PeproTech, Rocky Hill, N.J.) without or with 10 nm lacritin or C-25. Cells were washed, fixed with 4% paraformaldehyde, and immunostained for FOXO3 (1:200; Millipore, Billerica, Mass.) followed by goat anti-rabbit secondary antibody and visualization on a Zeiss LSM 700 microscope.

[10] = test system: S. epidermidis; test: Lacritin inhibition (colony count) assay, S. epidermidis; type: cell-based; conditions: 2 uM, mid-log S. epidermidis
Protocol: as §1, §2

B1: lacritin: 12.3 kDa secreted tear glycoprotein; recombinant, generated in Escherichia coli (protein, listed as Homo sapiens)
chain: MKFTTLLFLAAVAGALVYAEDASSDSTGADPAQEAGTSKPNEEISGPAEPASPPETTTTAQETSAAAVQGTAKVTSSRQELNPLKSIVEKSILLTEQALAKAGKGMHGGVPGGKQFIENGSEFAQKLLKKFSLLKPWA
Corneal neuron activity immediately after application ([1]; 10 μM, from ˜12 before): ~8 spikes/s | Wet response after 1 hr and washout ([1]; 10 μM, from ˜12 before): ~16 spikes/s | Dry response after 1 hr and washout ([1]; 10 μM, from ˜20 before): ~23 spikes/s | Neural dry response ([1]; topical): enhanced | Cross-linking of monomer spiked into immunodepleted tears [2]: formed dimers, trimers and tetramers | Bactericidal activity [3]: does not have bactericidal activity | Appearance of colonies [4]: no effect on the appearance of colonies | Appearance of colonies [5]: no effect on the appearance of colonies | Keratin 10 levels (skin epidermal marker) [6]: diminished levels | Keratin 12 expression (corneal marker) [6]: 80.1±4.8% | Lissamine green staining [6]: −0.417±0.06 | Lymphocytic foci per millimeter square area of lacrimal gland tissue (CD4+T cell infiltration) ([6]; three times daily for three weeks, 10 μl of 50 μg/ml): 3.68±0.65 per mm sq | CD4+T cells in corneal stroma ([6]; three weeks): 14.6±1.6 | CD4+T cells in limbus ([6]; three weeks): 29.6±2.5 | Tolerability of multiple doses per day [7]: well tolerated | Increase of basal tearing over vehicle ([7]; acute): 30% | FOXO3 translocation [8]: translocated FOXO3 | FOXO3 translocation to the cytoplasm by dry eye tears spiked with the substance [9]: translocated FOXO3 to the cytoplasm | Appearance of colonies [10]: no effect on the appearance of colonies
